Source: the DeepSol protein solubility set

Experiment: soluble on expression in E. coli; label from the status in PepcDB or PDB records

Soluble on expression in E. coli, soluble:
MSLDIKTLKGFKDYLPKDSLIRIHIVRQIFSVLNSYNFDLIDTPVLEYSDLLLKKSGDETEKQIYRFKDNGGRDVSMRFDLTVPFARFVATNISALKLPFRRSQFGKVFRGENSQKGRYREFMQFDFDIVGEDTFRGDAEILSVVYYGLEEIFLNFIEGINKKFIIHYSHIGILNSFFEKLGLKEKSIFILRNIDKIDKIGIDKVKEALLLEIEKEAVDSILSLVSLQGTFKDKIQALKSILGDNESIKRVEDVFQHLSLLKIQDSFNLNLKISRGLDYYTGIVFESEVFGSNMGSVCSGGRYDNLVSSFSNSIQKISGVGGSFGVDRIKDIIDLEKFSYIKIFVTKARSKVLIVNLDSALQNYYYELATRFRNHDYSKVKNISCEVYFKNKNGKNIKEQIEYALSKEIRFLVFVGQEEYKENKMKVRDLTKKEELLLSFEESINLIKCNEKLEGHHHHHH, MSLDLPPGVVALVNGTRITQEQLDRAIAQSGAQANPQVAQALKQQLIARELFRQQAAKNPAYDKLPAVKQAMQEAHDAVITQAWLKDNIKPAPITEEQVKARYDAIVASLGDKEYKARVIQLGDDVTAAQVLAQLKQGGDFAKLAQQYSTAPNKVRGGDMDWVSFKVPVEEGKTQNLPLPLAREIAALGIGAASTAPVEVGSQRYIVKVEAARPTQVPGYDTVRPAIRQALETAELERVTVQVVGGLLKAAKIVQEGHHHHHH, MSLDLPSRPPAPPEGVIGRRIRYADALEPEREEWFVAGTELAEVTAPEAPTPRIETPADGMIIALDPDIPARNQKLILRARPARAGMSFLLDGRPVGPAETPVKWPPEPGGHVLKLMDDRGRTLDLVKFQVRGMREGHHHHHH, MSLDLRARVREELERLKREGLYISPKVLEAPQEPVTRVEGREVVNLASNNYLGFANHPYLKEKARQYLEKWGAGSGAVRTIAGTFTYHVELEEALARFKGTESALVLQSGFTANQGVLGALLKEGDVVFSDELNHASIIDGLRLTKATRLVFRHADVAHLEELLKAHDTDGLKLIVTDGVFSMDGDIAPLDKIVPLAKKYKAVVYVDDAHGSGVLGEKGKGTVHHFGFHQDPDVVQVATLSKAWAGIGGYAAGARELKDLLINKARPFLFSTSHPPAVVGALLGALELIEKEPERVERLWENTRYFKRELARLGYDTLGSQTPITPVLFGEAPLAFEASRLLLEEGVFAVGIGFPTVPRGKARIRNIVTAAHTKEMLDKALEAYEKVGKRLGIIR, MSLDNLALRMRPKTIDQVIGQEHLVGPGKIIRRMVEANRLSSMILYGPPGIGKTSIASAIAGTTKYAFRTFNATVDSKKRLQEISEEAKFSGGLVLLLDEIHRLDKTKQDFLLPLLESGLVIMIGATTENPFFSVTPAIRSRVQIFELEPLSNQDVKEALQIALSNPERGFDFPIELDEDALDFIATSTNGDLRSAFNSLDLAVLSTPENDEGIRHITLDIMENSLQRSYITMDKDGDGHYDVLSALQKSIRGSDVDASLHYTARLIEAGDLPSLARRLTVIAYEDIGLANPEAQIHTVTALDAAQKIGFPEARILIANVVIDLALSPKSNSAYVAMDKALADLKTSGHLPIPRHLRDGHYSGSKELGNAQDYLYPHNYPGNWVKQDYLPEKIRNHHYFQAEDTGKYERALAQRKEAIDRLREGHHHHHH, MSLDTPTHLTLMVSGTAKMIYLPATLAQRLGYFRDEGLDVELLSQPAGVDAESELLTGYAQGVVGFYDHTIDLQTKGKEVRAIVVFSHVPGEAEVVSTRLPATVQSLHDLRGRTLGVTGLGSSTSFLTRHLMAQQGLGPGEYTMLPVGAEHSFVSALRSGRIDAGMTTDPTATRLIRNKEARMLLDLRTIESTRAALGGPYPAACLYVQTEWLEAHPELATKLARAFVRTLRYLRSHRAEDIAAHMPPEFRRDRPDVYMQALIAALPTFSDDGRMPADGPATVLRVLSTSNPNARDKHIDLSRTYTNRFVDQAKEGHHHHHH, MSLDVAALVSGGVDSSVVVHRLCEEGYKPAIFYIRIGMEDKDGYIDCPAEEDIELTTLIARRYGCPFEVVDLHKEYWERVVSYTVETVRRGLTPNPDMMCNKLIKFGCFEERWGYQFDRIATGHYATTDLLNGKTYLSTAKDPVKDQTDFLAQINFAQISKLMFPIGHLLKSEVRAIANAAGLPSAKRKDSQGICFLGKIDYNDFIERYLGKKEGRIIELETGKVIGRHQGYWFHTIGQRKGLGLSGGPWFVVKKDIKRNIILVSRGYDPDAQYGKTIEMETFDFITEDAYEAGYWNREDATPVTFKIRHTPEFTRGLLYKGEKGYRLESEERIQGIAPGQYCVIYDEDHHLCYGSGMITKGREGHHHHHH, MSLDYHKQFIGELSQVSYHIIGYGSYYEEALIKYLGESIERYATVIAGDLLSDRIVYASYNELKLLHKVMPLEYLQVFTQEQIALSCDLQMMMCDKMVTENDVLGWVKCPMFFEDAEMYVPAQMLCVGYKTNETVGERRIIPGFSTGTASHKTLEAAMCNSLIEYIQIDSMMLSWYTKKPCPKIIVDDPDIEVILEEARLGKDSLYDIIPIDMTVGEDNPLYTFGIILKNKYDEGPYLLFGVQAGLDPKHALLRGIMEASAISYSYYYNLLYQKASLANIECEEPLFLDLDSNVFYYAHPKDQDHKWKAFEPLISGEVLLSDLEDHSGKDKKEDLKTLLAYAKKVSPNAVFLDITPPEALEKGWYVTRVLMPELLEMCIPAFPFANHPRMRQFGGVTNAFVHPMPEGHHHHHH, MSLEAKKSKAIVFSGVNQIELREVTLKPVSSTDVLVETWWSSISTGTEKMALNGLIPSPPFIFPFIPGYETVGRIVEAGDHVNQGLIGKFAYVAGSFGYEDVNAAFGGASQFIVCPVESLTVLDGIANPQCGIALPLGATALHIVDLAEVKNRKVLVLGQGAVGILAAELAKRFGASLVAVTEPHQRRLDISTSDIKVNPEKQDVSVALAGHEFDVLIDSTGIMSAIETGLRFLKFHGKVIFGGYYQRMNIDYSQAFNKELSFIAARQWAKGDLHRVRELIAAGKINAEKIFTHQCTVDDNLMEAYMQAFSDSDCLKMIIHWKHGNEAGEHFPTCNTANEGHHHHHH, MSLEAVKTIEKEKKDLEQKRIEEATEEEIKPGDHVKMEGGTSVGKVVEVKSGTALVDFGFLRLKVPVSKLRKTKKEEKKETSTFSYKPSSFRTEIDIRGMTVEEAEPVVKKFIDDLMMNGISKGYIIHGKGTGKLASGVWEILRKDKRVVSFRFGTPSEGGTGVTVVEVKEGHHHHHH

Soluble on expression in E. coli, not soluble:
MSLDIFIMDPNEKLTSERLKDFLDRHAARLSRYERLMNMYMGKHPILYEKEKELGKPNNRLVVNFAKYIVDMLNGYFIGIPVKTIHENKEVAAKMKEIAKRNSQNDNNAELSKMCSIYGHAYEFLYQDENAHTRVTYVDPREAFVIYDNTVAQEPLYGVRVLKDDKERPYGTIYSRYDERDFFTSDDGELVIEEKGQEHFFGDVPLIEYVENNERQSAFESVETLINAYNKAISEKANDVDYFADAYLVILGAELDEETIKQIRDNRVINLKSGDGQKIVLEFLDKPNADTTQENLIERLERLIFQISMVANISDEKFGTSSGIALKYKLQPMENIALMKERKFNNGMIRRFKMMFNIPTNFGVDPDEYLNIEYVFTRNIPNNILEEAETAEKLAGITSRQTQLSVLSVVDNVQNELDRIQKEKEGEEINSFNRDMNSPFFGSGELDDGQEEEGHHHHHH, MSLDLEYTPEQQQLRAEIRATLQTVMTPERVAAVSEQMDGGPAVRECVRALAAANLLGVGWPKEYGGRGFSAIEQFIFAEEARRVSAPIPLVTLNTAGPTLMHYGTDEQKRRFLPAILDGTVEFAIGYSEPGAGSDLASVHTTAVRVGDEYVINGQKMFTSGAAYADYIWLAVRTDPDAKKHKGISILIVPTSSPGFSWQPLHTMPGISTFYTFYDDVRVPVSALVGAENQGWQLITTQLNFERAALGNLGALEPLFDKTLDWALSTELDGGRVIDQPWVRSALARVEAQVAAYKLVNLRVNAAMTKGALNMGEASAAKVFGTELTQQVARELLEVLDGNGVRRGAEAPLRGALESAYRQAVINTFGGGANEIQRDIIAMAALGMPRAEGHHHHHH, MSLDQPLTFYGLKSMSGAFASYGKYADMGSRLAIAEHPQLLGHPLKYKVIDTEGNAGKAVRKVQEAIGQDGARFFQGCTLSSSALAVSKEIHKAGGVFMTPVGADEITGKDCNASTFRWSVPTYGAIRETLVPMSRQLPQAKRWYTITPQYVFGDALLDNARKVFAELGVEHIGNSYHSLQEQEFSGYLTNAIAAKPDVLVLLNFGSQASNALRQAVNFGIKDRMKVLMVWSAGLDQFQELGSDVLEGVYLGAQYWHQVDTPLNKLLVAATRKAYGINPNYPLAADYIGTKVMLEAIVKAGSLDGAAVSAALQGMRFQGPTGEELIRPGDHQVLKDYYLLRGKPQGQMRDEGHHHHHH, MSLDSRTELKEIAGVAKRLTLLYVEDDIPTRRFLKRRLEEIFGVVAEAANGEEGLKRFLQGGIDLVISDNIMPFMDGIEMIREIRRVDTRLPIILTTAFIDTDYLMEAINLGVTQFVAKPISMDLLHNAIQMAIQRVVLDNLTRKAKEQEIELLRFQDRYHSLQQESARRKERNLIKNDHYLQTIQGKEGEEWVLDALHRSLEILSGDSYSVRGLDEGRALLFIVDGMGKGLSASVTTTLSIAFLNYLIDERIAQGARVELGSLVGDYLRFIQKELLEEEIISAGFYDFDFKRERLSYITFGMPSMLWVNSQGECERIKSSSPPLMKYSLPPLPQEICIQDLEKILLYSDGLNEALLDEETIYGEILEEELLWNRFLSEMNRRFRSRVKDVDDDITAFWVRRVPQNPSASRSYEIKSSLLEVHRLSDTIEEGLESFGIFDLEASTRFMTALTEMLMNAYEHGSLGVERLTKDQLIQEGSYDEYLAKESKPHRRIRVRLRRYEEGEATLLTCEVEDEGRGFDTQTLLQNLRNEPETLTSGRGIRLTKGLVDHLCFKKGGRVSQFTVVAREALFGNEGHHHHHH, MSLDVKNLAKWKKVPPVSDRIANTFVALKMLREVDEEHNPVLFSKAHRDNIYTVIDISHESPVYNPASLEAGGIHYQKYPTVSKIPPTPDEVRDFIALVDRLQKEITEKMEKSNTSGAARLRPVVGVHCHYGFNRTGFLIVSYLIERCGFGVQEAIDEFEKRRPPGIRHAHFIDTLFVRYCVGLKRAPTEGHHHHHH
